# Assay results from US20220047716A1 (SUTRO BIOPHARMA, published 2022).
# Legend:
# Experiment in all cases: cell-based or functional assay
# [1] = biological target: human folate receptor alpha (hFOLR1) (human, UniProt P15328 25-234)
# [2] = biological target: human folate receptor alpha (hFolRα) on cells (human, UniProt P15328 25-234)
# [3] = biological target: human folate receptor beta (hFolRβ) (human, UniProt P14207 17-230)
# [4] = biological target: Human folate receptor alpha (hFOLR1) (human, UniProt P15328 25-234)
# [5] = biological target: T1, human folate receptor alpha (hFOLR1) on cells (human, UniProt P15328 25-234)
# [6] = biological target: T1, human folate receptor alpha (hFOLR1) on …; remark: listed apart in the source
# T1 sequence (P15328 25-234 limits assumed): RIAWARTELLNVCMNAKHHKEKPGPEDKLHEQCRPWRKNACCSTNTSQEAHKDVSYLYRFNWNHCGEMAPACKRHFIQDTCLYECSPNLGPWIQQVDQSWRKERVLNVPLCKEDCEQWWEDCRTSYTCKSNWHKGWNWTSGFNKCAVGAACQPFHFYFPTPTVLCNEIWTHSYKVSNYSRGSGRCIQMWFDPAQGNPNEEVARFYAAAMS
# Chain of Human folate receptor alpha (hFOLR1) (P15328 25-234 limits assumed): as above
# Chain of human folate receptor alpha (hFOLR1) (P15328 25-234 limits assumed): as above
# Chain of human folate receptor beta (hFolRβ) (P14207 17-230): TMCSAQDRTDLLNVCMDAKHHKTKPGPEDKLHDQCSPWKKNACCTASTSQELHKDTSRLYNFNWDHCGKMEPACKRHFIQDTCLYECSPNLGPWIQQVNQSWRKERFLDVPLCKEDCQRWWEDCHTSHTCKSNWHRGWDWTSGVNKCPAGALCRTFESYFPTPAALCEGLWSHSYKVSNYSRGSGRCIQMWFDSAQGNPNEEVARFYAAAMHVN
# Chain of human folate receptor alpha (hFolRα) on cells (P15328 25-234 limits assumed): as the sequence (P15328 25-234 limits assumed) above
Binder,Igrov 2° antibody cell killing EC50 [1] [nM],Igrov 2° antibody cell killing Span [1] [%],KB 2° antibody cell killing Span [1] [%],KB 2° antibody cell killing EC50 [1] [nM],also measured
"SRP1848-E06 (antibody, V domains shown) VH: EVQLVESGGGLVQPSGSLRLSCAASGFNINRYYIHWVRQAPGKGLEWVGGITPNDGYTDYADSVEGRFTTSADTSKNTAYLQMNSLRAEDTAVYYCARGTWSWPSGHSYYLDYWGQGTLVTVSS VL: not shown",0.025,74,93,–,–
"SRP1848-G04 (antibody, V domains shown) VH: EVQLVESGGGLVQPGGSLRLSCAASGFNIHSTDIHWVRQAPGKGLEWVAYITPAGGATFYADSVKGRFTISADTSKNTAYLQMNSLRAEDTAVYYCARYPYWFAGYMDYWGQGTLVTVSS VL: not shown",0.016,75,92,0.051,–
"SRP1848-G06 (antibody, V domains shown) VH: EVQLVESGGGLVQPGGSLRLSCAASGFNIRSTDIHWVRQAPGKGLEWVAYITPAGGATYYADNVKGRFTISADTSKNTAYLQMNSLRAEDTAVYYCARQPYWFAGYMDYWGQGTLVTVSS VL: not shown",0.026,81,96,0.057,–
"SRP1848-G07 (antibody, V domains shown) VH: EVQLVESGGGLVQPGGSLRLSCAASGFNIHSTDIHWVRQAPGKGLEWVAYITPAGGATWYADSVKGRFTISADTSKNTAYLQMNSLRAEDTAVYYCARYPFWFAGYMDYWGQGTLVTVSS VL: not shown",0.038,78,94,0.058,–
"SRP1848-G09 (antibody, V domains shown) VH: EVQLVESGGGLVQPGGSLRLSCAASGFNIRGTDIHWVRQAPGKGLEWVAYITPAGGATFYADSVKGRFTISADTSKNTAYLQMNSLRAEDTAVYYCARHEYWFSGYMDYWGQGTLVTVSS VL: not shown",0.036,83,97,0.073,–
"SRP1848-G10 (antibody, V domains shown) VH: EVQLVESGGGLVQPGSSLRLSCAASGFNIRSTDIHWVRQAPGKGLEWVAYITPAGGATYYADSVKGRFTISADTSKNTAYLQMNSLRAEDTAVYYCARYPYWFAGYIDYWGQGTLVTVSS VL: not shown",0.019,79,97,0.046,–
"SRP1848-G11 (antibody, V domains shown) VH: EVQLVESGGGLVQPGGSLRLSCAASGFNISSTDIHWVRQAPGKGLEWVAYITPAGGATWYADSVKGRFTISADTSKNTAYLQMNSLRAEDTAVYYCARYPYWFSGYMDYWGQGTLVTVSS VL: not shown",0.023,84,97,0.04,–
"SRP1848-E03 (antibody, V domains shown) VH: EVQLVESGGGLAQPGGSLRLSCAASGFNIGNYYIHWVRQAPGKGLEWVGGITPRDGFTDYADSVKGRFTISADTSKNTAYLQVNSLRAEDTAVYYCARGSWSWPAGHSYYLDYWGQGTLVTVSS VL: not shown",0.027,73,94,0.057,–
"ADC Molecule 4 (1848-H01 FolRα antibody, Y180/F404, Conjugate P) (antibody, V domains shown, non-natural amino acids at HC-Y180 and HC-F404, each conjugated to the cleavable hemiasterlin linker-drug (Conjugate P); both sites lie in the constant region, outside the VH entry) VH: EVQLVESGGGLVQPGGSLRLSCAASGFNIRTQSIHWVRQAPGKGLEWIGDIFPIDGITDYADSVKGRFTISADTSKNTAYLQMNSLRAEDTAVYYCARGSWSWPSGMDYYLDYWGQGTLVTVSS VL: not shown",–,–,–,–,"cytotoxic activity on 293T cells expressing FolRα, EC50 [2]: < 10 nM; cytotoxic activity on 293T cells expressing FolRβ, EC50 [3]: ~100 nM"
"ADC Molecule 20 (antibody 1848-H01, Y180/F404, Conjugate Q) (antibody, V domains shown, non-natural amino acid (pAMF) at heavy chain constant sites HC-Y180 and HC-F404 (EU numbering), each conjugated to cleavable (ValAla) hemiasterlin linker-drug (Conjugate Q); DAR 3.81) VH: EVQLVESGGGLVQPGGSLRLSCAASGFNIRTQSIHWVRQAPGKGLEWIGDIFPIDGITDYADSVKGRFTISADTSKNTAYLQMNSLRAEDTAVYYCARGSWSWPSGMDYYLDYWGQGTLVTVSS VL: not shown",–,–,–,–,Cell Killing (Igrov1) EC50 [4]: 0.13 nM; Cell Killing (Igrov1) Span [4]: 70%
"ADC Molecule 4 (antibody, V domains shown, non-natural amino acids at HC-Y180 and HC-F404 (constant region, outside this VH entry) linked to cleavable hemiasterlin linker-drug (Conjugate P), DAR about 3.7-3.8) VH: EVQLVESGGGLVQPGGSLRLSCAASGFNIRTQSIHWVRQAPGKGLEWIGDIFPIDGITDYADSVKGRFTISADTSKNTAYLQMNSLRAEDTAVYYCARGSWSWPSGMDYYLDYWGQGTLVTVSS VL: not shown",–,–,–,–,"cytotoxic activity on Igrov1 cells in the presence of 0.5 µM un-conjugated 1848-H01, EC50 [5]: > 33 nM; cytotoxic activity on OVCAR3 cells in the presence of 0.5 µM un-conjugated 1848-H01, EC50 [5]: > 33 nM"
"ADC Molecule 23 (antibody 1848-H01 V262E, Y180/F404, Conjugate P) (antibody, V domains shown, non-natural amino acid (pAMF) at heavy chain constant sites HC-Y180 and HC-F404 (EU numbering), each conjugated to cleavable hemiasterlin linker-drug (Conjugate P); DAR 3.57) VH: EVQLVESGGGLVQPGGSLRLSCAASGFNIRTQSIHWVRQAPGKGLEWIGDIFPIDGITDYADSVKGRFTISADTSKNTAYLQMNSLRAEDTAVYYCARGSWSWPSGMDYYLDYWGQGTLVTVSS VL: not shown",–,–,–,–,Cell Killing (Igrov1) EC50 [4]: 0.088 nM; Cell Killing (Igrov1) Span [4]: 72%
"ADC Molecule 4 (antibody 1848-H01, Y180/F404, Conjugate P) (antibody, V domains shown, non-natural amino acid (para-azidomethyl-L-phenylalanine, pAMF) at heavy chain constant sites HC-Y180 and HC-F404 (EU numbering), each conjugated to cleavable hemiasterlin linker-drug (Conjugate P); DAR 3.73) VH: EVQLVESGGGLVQPGGSLRLSCAASGFNIRTQSIHWVRQAPGKGLEWIGDIFPIDGITDYADSVKGRFTISADTSKNTAYLQMNSLRAEDTAVYYCARGSWSWPSGMDYYLDYWGQGTLVTVSS VL: not shown",–,–,–,–,Cell Killing (Igrov1) EC50 [4]: 0.083 nM; Cell Killing (Igrov1) Span [4]: 80%
"SRP1848-D03 (antibody, V domains shown) VH: EVQLVESGGGVVQPGGSLRLSCAASGFNIRYFSIHWVRQAPGKGLEWVGDIFPNDGSTDYADSVKGRFTISADTSKNTAYLQMNSLRAEETAVYYCARGHWSWPSGYWYYLDYWGQGTLVTVSS VL: not shown",0.038,76,98,–,–
"ADC Molecule 24 (antibody 1848-H01 V262E, Y180/F404, Conjugate Q) (antibody, V domains shown, non-natural amino acid (pAMF) at heavy chain constant sites HC-Y180 and HC-F404 (EU numbering), each conjugated to cleavable (ValAla) hemiasterlin linker-drug (Conjugate Q); DAR 3.76) VH: EVQLVESGGGLVQPGGSLRLSCAASGFNIRTQSIHWVRQAPGKGLEWIGDIFPIDGITDYADSVKGRFTISADTSKNTAYLQMNSLRAEDTAVYYCARGSWSWPSGMDYYLDYWGQGTLVTVSS VL: not shown",–,–,–,–,Cell Killing (Igrov1) EC50 [4]: 0.19 nM; Cell Killing (Igrov1) Span [4]: 56%
"SRP2060-E10 (antibody, V domains shown) VH: EVQLLESGGGLVQPGGSLRLSCAFSGFSLSTFGMGVGWVRQAPGKGLEWVSHIWWDDDKYYHPALKGRFTISKDNSKNTVYLQMNSLRAEDTAVYYCGRNHFPHYYGSSHWYFNVWGQGTTVTVSS VL: EIVMTQSPATLSLSPGERATLSCKASQDINSYLSWYQQKPGQAPRLLIYRANRLVDGIPARFSGSGSGTDYTLTISSLEPEDFAVYYCLQYDEFPYTFGGGTKVEIK",–,–,–,–,"Igrov 2° Antibody Cell Killing, Nb-SC239, EC50 [6]: 0.061 nM; Igrov 2° Antibody Cell Killing, Nb-SC239, span [6]: 68%"
"SRP2060-B01 (antibody, V domains shown) VH: EVQLLESGGGLVQPGGSLRLSCALSGFSLSTFGMGVGWVRQATGKGLEWVSHIWWDDDKYYHPALKGRFTISKDNSKNTVHLQMNSLRAEDTAVYYCGRNHFPHYYGSSHWYFNVWGQGTTVTVSS VL: DIQMTQSPSTLSASVGDRVTITCKASQDINSYLSWYQQKPGKAPKLLIYRANRLVDGVPSRFSGSGSGTEFTLTISSLQPDDFATYYCLQYDEFPYTFGGGTKVEIK",–,–,–,–,"Igrov 2° Antibody Cell Killing, Nb-SC239, EC50 [6]: 0.045 nM; Igrov 2° Antibody Cell Killing, Nb-SC239, span [6]: 76%"
"SRP2060-A06 (antibody, V domains shown) VH: EVQLLESGGGLVQPGGSLRLSCAFSGFSLSTFGMGVGWVRQAPGKGLEWVGHIWWDDDKYYYPALKGRFTISKDNSKNTVYLQMNSLRAEDTAVYYCGRNHFPHYYGSSHWYFDVWGQGTTVTVSS VL: DIQMTQSPSTLSASVGDRVTITCKASQDINSYLSWYQQKPGKAPKLLIYRANRLVDGVPSRFSGSGSGTEFTLTISSLQPDDFATYYCLQYDEFPYTFGGGTKVEIK",–,–,–,–,"Igrov 2° Antibody Cell Killing, Nb-SC239, EC50 [6]: 0.013 nM; Igrov 2° Antibody Cell Killing, Nb-SC239, span [6]: 66%"
"SRP2060-E05 (antibody, V domains shown) VH: EVQLLESGGGLVQPGGSLRLSCAFSGFSLSTFGMGVGWVRQAPGKGLEWVSHIWWDDDKYYHPALKGRFTVSKDNSKNTVYLQMNSLRAEDTAVYYCGRNHFPHYYGSSHWYFNVWGQGTTVTVSS VL: EIVMTQSPATLSLSPGERATLSCKASQDINSYLSWYQQKPGQAPRLLIYRANRLVDGIPARFSGSGSGTDYTLTISSLEPEDFAVYYCLQYDEFPYTFGGGTKVEIK",–,–,–,–,"Igrov 2° Antibody Cell Killing, Nb-SC239, EC50 [6]: 0.22 nM; Igrov 2° Antibody Cell Killing, Nb-SC239, span [6]: 71%"
